Data taken from patent US20030003461, “Truncation selex method” (Gilead Sciences, Inc., published 2003).

Legend:
VEGF (VEGF165?) = VEGF (VEGF165?) (Homo sapiens, UniProt P15692-4 P15692-4:27-191); assay: filter; phenotype 5: non-binding with or without 3' fixed sequence; conditions: tags: R&D Systems; chain copies: 2; label: 32P body
VEGF [1] = biological target: T1, VEGF (Homo sapiens, UniProt P15692-4 P15692-4:27-191); assay: filter; phenotype 2: somewhat affected; conditions: tags: recombinant human, R&D Systems; chain copies: 2
[2] = biological target: T2, MS2 coat protein (MS2 CP) (bacteriophage MS2, UniProt P03612 P03612:2-130, V75E;A81G); assay: filter; tightest of the isolates; 100 mM HEPES-KOH pH 7.5, 80 mM KCl, 10 mM MgCl2, 24-25 C; conditions: chain copies: 2 (dimer, stated); hairpin
VEGF [3] = biological target: T1, VEGF; assay: filter; phenotype 4: unaffected; conditions: tags: recombinant human, R&D Systems; chain copies: 2
VEGF [4] = biological target: T1, VEGF; assay: filter; phenotype 3: gains significant affinity when truncated; conditions: tags: recombinant human, R&D Systems; chain copies: 2
[5] = biological target: T2, MS2 coat protein (MS2 CP); assay: filter; only marginally worse than full isolate; conditions: chain copies: 2 (dimer, stated); hairpin
TGFβ1 = TGFβ1 (Homo sapiens, UniProt P01137 P01137:279-390); assay: cell_activity; full inhibition of TGFβ1 in mink lung epithelial cell proliferation assay; conditions: tags: recombinant human, R&D Systems; chain copies: 2
Procedure: RNA was synthesized by phosphoramidite chemistry. Indicator cells (mink lung epithelial cells) were incubated with TGFβ1 and dilutions of RNA as described. The extent of cell proliferation was measured by ³H-thymidine incorporation and the data were analyzed as described. The points represent an average of n=2 and error bars are standard errors. The sequence of CD70syn and 30N7-9syn are 5′[…] (SEQ ID NO:323) and 5′[…] (SEQ ID NO:324), respectively.
The bioactivity of TGFβ1 nucleic acid ligands was measured with mink lung epithelial cells as described in U.S. patent application Ser. No. 09/046,247, filed Mar. 23, 1998. Briefly, proliferation of these cells is inhibited by TGFβ1. Human TGFβ1 was titrated on the cells and ³H-thymidine incorporation was measured. The point at which ³H-thymidine incorporation by the cells was inhibited by 90-100% was determined (typically 1-4 pM). This inhibitory amount of TGFβ1 along with varying amounts of nucleic acid ligand (typically 0.3 or 1 nM to 1 or 3 μM, in 3 fold increments) was used. Cells were plated at 1×10⁵/ml in 96-well plates in 100 μl MEM, 10 mM HEPES pH 7.5, 0.2% FBS. […] After incubation, the cells were lysed with 1% Triton X-100 and harvested onto GF/B filter plates by the Packard 96 well plate harvester, and ³H-thymidine incorporation in cellular DNA was quantitated by scintillation counting in microscint at the Packard Top-Count. […]

VEGF [6] = biological target: T1, VEGF; assay: filter; phenotype 4: unaffected (Table 10 clone 34,36a: phenotype 1); conditions: tags: recombinant human, R&D Systems; chain copies: 2
[7] = biological target: T2, MS2 coat protein (MS2 CP); assay: filter; binds better than natural MS2 site; conditions: chain copies: 2 (dimer, stated); hairpin

T1 sequence (P15692 other isoform, or with tags, fused parts or gaps): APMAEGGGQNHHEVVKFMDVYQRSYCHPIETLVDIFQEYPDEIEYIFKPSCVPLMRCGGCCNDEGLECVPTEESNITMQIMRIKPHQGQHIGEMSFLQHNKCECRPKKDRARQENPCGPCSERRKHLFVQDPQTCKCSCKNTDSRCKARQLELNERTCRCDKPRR
VEGF (VEGF165?), sequence (P15692 other isoform, or with tags, fused parts or gaps): as above
TGFβ1, sequence (P01137 279-390, one chain of several): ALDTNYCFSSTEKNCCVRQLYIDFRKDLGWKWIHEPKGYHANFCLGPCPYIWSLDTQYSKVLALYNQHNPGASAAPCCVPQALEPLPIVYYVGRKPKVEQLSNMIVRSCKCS

B1: T1-13 (ssRNA)
RNA: GGGAGCAGACGACUCGCCCGACAGACCACUCGCCCGACAGACGACUCGCCCGA
modifications: 2'-F pyrimidines
- binding result (VEGF (VEGF165?)): no binding

B2: VEGF hyb 3a (VT30.1) (ssRNA)
RNA: GGGAGGACGAUGCGGAACUAGUGAAUGCUUAUACGACCGUGUUGUCAGACGACUCGCCCGA
modifications: 2'-F pyrimidines
- binding result (VEGF [1]): binds

B3: rffG isolate 1 (ssRNA)
RNA: GGGAAAGCCCACGCCGGCACGCGUAUUCACUGAGCAUCAGCCAGACUGUGUACCGAACUGCCGCACC
- binding result [2]: binds

B4: T1-3 (ssRNA)
RNA: GGGAGCAGACGACUCGCCCGAGGAGGAGGGGGGCAGACGACUCGCCCGA
modifications: 2'-F pyrimidines
- binding result (VEGF (VEGF165?)): no binding

B5: VEGF hyb 2a,23 (VT30.3) (ssRNA)
RNA: GGGAGGACGAUGCGGAGAAUCAGUGAAUGCUUAUAAAUCUCGUGUCAGACGACUCGCCCGA
modifications: 2'-F pyrimidines
- binding result (VEGF [3]): binds

B6: VT30.3 (ssRNA)
RNA: GGGAGGACGAUGCGGAGAAUCAGUGAAUGCUUAUAAAUCUCGUGUCAGACGACUCGCCCGA
modifications: 2'-F pyrimidines
- binding result (VEGF [1]): binds

B7: T2-17 (ssRNA)
RNA: GGGAGAGGAGAAUCAGUGAAUGCUUAUAAAUCUCGUGUCACACAGACGACUCGCCCGA
modifications: 2'-F pyrimidines
- binding result (VEGF [1]): binds

B8: VEGF hyb 4a (ssRNA)
RNA: GGGAGGACGAUGCGGAAACGGAACUUCUUGGAUACAUCUGCUCGUCAGACGACUCGCCCGA
modifications: 2'-F pyrimidines
- binding result (VEGF [4]): binds

B9: rffG minus fixed sequences (ssRNA)
RNA: GGCACGCGUAUUCACUGAGCAUCAGCCAGACUGUGU
- binding result [5]: binds

B10: T1-16 (ssRNA)
RNA: GGGAGGUCUCCAGACGACUCGCCCGA
modifications: 2'-F pyrimidines
- binding result (VEGF (VEGF165?)): no binding

B11: T1-5 (ssRNA)
RNA: GGGAGGGUGAAUGCCAACGAUUUUAUCGCCUAUCGUCACAGACGACUCGCCCGA
modifications: 2'-F pyrimidines
- binding result (VEGF (VEGF165?)): no binding

B12: CD70syn (ssRNA)
RNA: GGGUGCCUUUUGCCUAGGUUGUGAUUUGUAACCUUCUGCCCA
modifications: 2'-F pyrimidines (inferred)
- Ki (TGFβ1): ~74.6 nM

B13: T2-7 (ssRNA)
RNA: GGGAGGAAACGGAAGAAUUGGAAAACACCCGUCCAGACGACUCGCCCGA
modifications: 2'-F pyrimidines
- binding result (VEGF [1]): binds

B14: VEGF hyb 6 (ssRNA)
RNA: GGGAGGACGAUGCGGAUUUGGAUGCAUGUCAAGGCGUUUUGCCCUCAGACGACUCGCCCGA
modifications: 2'-F pyrimidines
- binding result (VEGF [3]): binds

B15: VEGF hyb 10,16b (ssRNA)
RNA: GGGAGGACGAUGCGGUGAAACGGAAGAAUUGGAAACAUUGCUCGUCAGACGACUCGCCCGA
modifications: 2'-F pyrimidines
- binding result (VEGF [6]): binds

B16: T1-1 (ssRNA)
RNA: GGGAGCGGACGACCUGGUGAAUGCCAAUAUACUUUUCGCGUCACAGACGACUCGCCCGA
modifications: 2'-F pyrimidines
- binding result (VEGF (VEGF165?)): no binding

B17: T2-11 (ssRNA)
RNA: GGGAGGGACACUGGUUCCGAAGUAUUGUCUUUGUCCUCACAGCAGACGACUCGCCCGA
modifications: 2'-F pyrimidines
- binding result (VEGF [1]): binds

B18: T1-2 (ssRNA)
RNA: GGGAGACCACCAGACGACUCGCCCGAACGCUUAUCCUCUGGUCAGACGACUCGCCCGA
modifications: 2'-F pyrimidines
- binding result (VEGF (VEGF165?)): no binding

B19: T1-4 (ssRNA)
RNA: GGGAGGCAGACGACUCGCCCGAGGAUACACAUCGUGUGGUCAGACGACUCGCCCGA
modifications: 2'-F pyrimidines
- binding result (VEGF (VEGF165?)): no binding

B20: o356 isolate 3 (ssRNA)
RNA: GGGAAAGCCCACGCCAAUGUUCCACCAGCAGGGGAAAUGAUGUUGUUCUGGCUACCGAACUGCCGCACC
- binding result [7]: binds

B21: isolate 7 (ssRNA)
RNA: GGGAAAGCCCACGCCAGUAAUUACGCCAUGAACACAGGCAUAAAGAAGUACAUAUGGUACCGAACUGCCGCACC
- binding result [7]: binds

B22: VEGF hyb 13b,21a (ssRNA)
RNA: GGGAGGACGAUGCGGUGUUGAUCGAGAUUUAAUCUAUUUCCACGUCAGACGACUCGCCCGA
modifications: 2'-F pyrimidines
- binding result (VEGF [4]): binds

B23: VT30.9 (ssRNA)
RNA: GGGAGGACGAUGCGGUCAACCGGUUGAAUAUUUGGUCGCUGACCUCAGACGACUCGCCCGA
modifications: 2'-F pyrimidines
- binding result (VEGF [3]): binds

B24: T2-23 (ssRNA)
RNA: GGGAGGGACUGAAUGAAUGUUGACGGUUACGCUUUCCCCACAGACGACUCGCCCGA
modifications: 2'-F pyrimidines
- binding result (VEGF [3]): binds

B25: ygiI isolate 4 (ssRNA)
RNA: GGGAAAGCCCACGCCUAGGAGAGCGUUAACAACAGCAUCAGCGUUGAAGUGACGGAGGUACCGAACUGCCGCACC
- binding result [7]: binds

B26: T2-20 (ssRNA)
RNA: GGGAGGGGAGGAAACGGAAGAAUUGGAAAACACCCGUCAGCACAGACGACUCGCCCGA
modifications: 2'-F pyrimidines
- binding result (VEGF [1]): binds

B27: T2-18 (ssRNA)
RNA: GGGAGUGGAAAUCAGUGAAUGCUUAUAGUUUCUCGCGUCACACAGACGACUCGCCCGA
modifications: 2'-F pyrimidines
- binding result (VEGF [3]): binds

B28: VEGF hyb 1 (ssRNA)
RNA: GGGAGGACGAUGCGGAGCUAGGUGAAUGCCGAUAUUCUCUUCCGUCAGACGACUCGCCCGA
modifications: 2'-F pyrimidines
- binding result (VEGF [3]): binds

B29: VEGF hyb 21b (ssRNA)
RNA: GGGAGGACGAUGCGGUACUAGGUGAAUGCCGAUAAUCUUAUCCGUCAGACGACUCGCCCGA
modifications: 2'-F pyrimidines
- binding result (VEGF [4]): binds

B30: VEGF hyb 4b (ssRNA)
RNA: GGGAGGACGAUGCGGAGACUUUGGAAGAAUUGAAUUUGUCCGUGUCAGACGACUCGCCCGA
modifications: 2'-F pyrimidines
- binding result (VEGF [1]): binds

B31: T1-15 (ssRNA)
RNA: GGGAGGGGGGGGGAGUGAAUGCUUAUUAGAUCUGCCGUCACAGACGACUCGCCCGA
modifications: 2'-F pyrimidines
- binding result (VEGF (VEGF165?)): no binding

B32: mreD isolate 5 (ssRNA)
RNA: GGGAAAGCCCACGCCUGAUUUGCAGCAACAGCGCAAUGAGGAAAGAGAGCCAGAUUACCCACCGAACUGCCGCACC
- binding result [7]: binds

B33: VEGF hyb 24 (ssRNA)
RNA: GGGAGGACGAUGCGGAAGGCGACUUGUAUGUGAUUCAGUAUUGGUCAGACGACUCGCCCGA
modifications: 2'-F pyrimidines
- binding result (VEGF [1]): binds

B34: pheT isolate 2 (ssRNA)
RNA: GGGAAAGCCCACGCCCUUCGCUUCAGUACCGUCGAGCAGCACCAGCGUUUCGCCACCGAACUGCCGCACC
- binding result [7]: binds

B35: VEGF hyb 15b,19 (ssRNA)
RNA: GGGAGGACGAUGCGGACAUGUAGGAAGAAUUGGAAGAUGCCGCGUCAGACGACUCGCCCGA
modifications: 2'-F pyrimidines
- binding result (VEGF [1]): binds
